Source: US20110097300A1 (SUNNYBROOK HEALTH SCIENCES CENTRE, published 2011)
Where no end group is shown, it is not given here. Maleimide‑PEO2‑Biotin = EZ-link-PEO-maleimide-biotin, biotinylated PEG-maleimide moiety (29 angstrom)

Target: T1, Tie 2 of EaHy926 endothelial cells (UniProt Q02763 23-1124, limits assumed)
T1 construct: whole, on cells; also called Tek
Assay: avidin agarose pull down from EaHy926 whole cell lysate, anti-Tie 2 immunoblot
Experimental: In this example, the ability of Vasculotide to bind the Tie 2 receptor, despite the engineered modifications, was tested using an in vitro pull down assay. In the pull down assay, a cell lysate of EaHy926 endothelial cells (which express high levels of Tie 2) was prepared in Phospho Lipase Cγ lysis buffer (50 mM Hepes buffer pH 7.5, 150 mM NaCl, 10% glycerol, 1% Triton X-100, 1.5 mM MgCl₂, 1.0 mM EGTA, 10 mM NaPPi, […], 2 mM Na₃VO₄, 1× aprotinin, 1× leupeptin and 1× PMSF). The whole cell lysate was mixed with either unclustered biotinylated Vasculotide or biotinylated irrelevant peptide. The biotinylated peptides then were isolated with avidin agarose and subsequently tested for their ability to precipitate Tie 2 via standard immunoblot analysis using anti-Tie 2 antibody.

T1 sequence (Q02763 23-1124 limits assumed): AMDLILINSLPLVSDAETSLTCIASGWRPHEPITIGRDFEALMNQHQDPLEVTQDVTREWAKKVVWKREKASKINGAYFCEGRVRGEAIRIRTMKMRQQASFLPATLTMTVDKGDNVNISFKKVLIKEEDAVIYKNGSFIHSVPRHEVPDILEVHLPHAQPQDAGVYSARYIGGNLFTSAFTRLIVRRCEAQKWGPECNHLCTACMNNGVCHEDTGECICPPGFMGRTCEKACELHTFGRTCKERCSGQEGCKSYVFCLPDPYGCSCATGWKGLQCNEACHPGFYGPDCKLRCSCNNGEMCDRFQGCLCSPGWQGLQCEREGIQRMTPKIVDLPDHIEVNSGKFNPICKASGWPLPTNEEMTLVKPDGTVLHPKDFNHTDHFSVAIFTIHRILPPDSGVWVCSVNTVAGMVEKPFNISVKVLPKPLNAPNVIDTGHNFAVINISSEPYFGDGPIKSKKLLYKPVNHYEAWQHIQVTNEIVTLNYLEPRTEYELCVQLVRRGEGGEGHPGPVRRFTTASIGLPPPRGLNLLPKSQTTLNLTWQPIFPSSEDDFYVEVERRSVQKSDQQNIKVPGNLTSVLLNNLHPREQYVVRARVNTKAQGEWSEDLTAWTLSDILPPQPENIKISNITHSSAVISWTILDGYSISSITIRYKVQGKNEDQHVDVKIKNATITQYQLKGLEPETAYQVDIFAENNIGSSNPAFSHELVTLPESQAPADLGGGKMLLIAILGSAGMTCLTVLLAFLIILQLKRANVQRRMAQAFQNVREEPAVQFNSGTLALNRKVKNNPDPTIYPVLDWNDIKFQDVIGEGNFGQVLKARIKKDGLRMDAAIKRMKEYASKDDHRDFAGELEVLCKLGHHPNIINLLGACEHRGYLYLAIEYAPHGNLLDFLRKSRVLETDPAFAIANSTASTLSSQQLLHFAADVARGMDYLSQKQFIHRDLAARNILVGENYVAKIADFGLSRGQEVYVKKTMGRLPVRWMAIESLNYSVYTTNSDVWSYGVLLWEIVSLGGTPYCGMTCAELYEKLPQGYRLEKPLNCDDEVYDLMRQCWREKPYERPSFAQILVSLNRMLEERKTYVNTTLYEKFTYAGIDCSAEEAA

B1: unclustered Vasculotide (biotinylated T7 peptide-PEG monomer) (peptide)
peptide: C(Maleimide‑PEO2‑Biotin)HHHRHSF-OH
notes: L-amino acids; monomer, not clustered with avidin; also called T7-biotin; non-clustered Vasculotide
binding result: binds
